Experimental findings from publication doi:10.1101/2020.10.28.359091 (bioRxiv, 2020) are described below.

The target of test [1] is RXR/RAR LBD heterodimer (mouse RXRα LBD with human RARα LBD) (human | mouse) (UniProt P10276). The test can be described thus: fluorescence polarisation.
Test [2] has the same target. The test can be described thus: fluorescence polarisation. This is another data set of the same source.
Test [3] deals with T1, RARα ligand-binding domain (RAR LBD) (human, UniProt P10276-1 176-421).
T1 sequence: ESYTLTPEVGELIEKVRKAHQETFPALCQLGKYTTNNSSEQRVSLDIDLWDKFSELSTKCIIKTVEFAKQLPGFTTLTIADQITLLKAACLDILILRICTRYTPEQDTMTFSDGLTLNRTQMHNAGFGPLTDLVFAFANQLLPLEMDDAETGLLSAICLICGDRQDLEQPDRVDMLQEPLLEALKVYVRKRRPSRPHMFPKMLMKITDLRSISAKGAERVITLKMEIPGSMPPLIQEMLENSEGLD
Kind of test: fluorescence polarisation.

For test [4], the target named is T1, RARα ligand-binding domain (RAR LBD). Kind of test: crystal structure.
The target is the same in test [5]. The test can be described thus: crystal structure. The source holds these as a separate data set.

Like-named read-outs stand apart in the source and are kept apart here. No end group written: not given here. *: point of attachment. FITC = O=C1OC2(c3ccc(O)cc3Oc3cc(O)ccc32)c2ccc(NC(=S)*)cc21

For the molecule “TIF2 nuclear receptor interaction domain (TIF2_(NRID)), residues 624-773, wild type (domain or fragment)”, the Kd in test [1] amounted to 200 nM. Also, in test [2], the Kd was determined as 1340 nM and the fold decrease of Kd against the apo heterodimer came out at 9 fold.

On to {FITC}-LTERHKILHRLLQEGSP [FITC-SRC1 NR2 peptide (FITC-LTERHKILHRLLQEGSP)], for which the binding result in test [3] is “binds”. For RHKILHRLLQEGS [SRC1 NR2 peptide (RHKILHRLLQEGS), unlabelled], the binding result in test [3] is given as “binds”. Turning to KHKILHRLLQDSSSPVDLAKLTAEATGK [TIF2 NR2-Ext peptide (K686-K713), unlabelled], the binding result in test [4] was “binds”.

Turning to RHKILHRLLQEGSPSDITTLSVEPDKK [SRC1 NR2-Ext peptide (RHKILHRLLQEGSPSDITTLSVEPDKK)], the binding result in test [5] is reported as “binds”. Consider KHKILHRLLQDSS [TIF2 NR2 peptide (KHKILHRLLQDSS), unlabelled], for which the binding result in test [3] is “binds”.
